Legend:
[1] = test system: seq129.1_CID-SmBiT and mini11-LgBiT; test: Cortisol sensing with NanoBiT fusions (luminescence on cortisol titration); type: biochemical; conditions: seq129.1_CID-SmBiT and mini11-LgBiT mixed equimolar, cortisol 2-3 hours, DTZ 25 μM; estimated; read-out: EC50 of luminescent signal on cortisol titration
Text: FIG. 2. Design and characterization of a cortisol-dependent heterodimer. (A) Design pipeline for cortisol-induced heterodimerization. Starting from a model of seq129.1_CID in complex with cortisol (top), we used RIFdock™ and a library of designed 3-helix bundles to generate thousands of putative ternary complexes (middle), and amino acid sequences encoding these complexes were generated with FastDesign™ and ProteinMPNN™ (bottom). Zoom-in of the designed CID ternary complex (seq129.1_CID, mini11, and cortisol) (bottom panel). (B) Size-exclusion chromatography traces of an equimolar solution of seq129.1 and mini11 (1 μM) in the presence or absence of cortisol (10 μM). (C) Schematic diagram of the designed cortisol-induced heterodimerization coupled with a binary split luciferase to create a biosensor. […]
As a proof-of-concept for the application of the designed CID as a sensor for cortisol, we genetically fused seq129.1_CID and mini11 to the SmBiT and LgBiT components of the NanoBiT™ system, respectively, which reconstitutes NanoBiT™ and generates luminescence when brought in close proximity by a molecular interaction 18.
seq129.1_CID and mini11 were genetically fused to SmBiT and LgBiT, respectively, and ordered as eblocks from IDT. […] Immediately after adding DTZ, the luminescent signal was measured on a Neo2 plate reader. […]

seq129.1_CID = test: Native mass spectrometry of the ternary complex; type: binding; conditions: cortisol and mini11
seq129.1_CID-SmBiT = target: T1, seq129.1_CID-SmBiT; test: cell-based or functional assay
T1 chain: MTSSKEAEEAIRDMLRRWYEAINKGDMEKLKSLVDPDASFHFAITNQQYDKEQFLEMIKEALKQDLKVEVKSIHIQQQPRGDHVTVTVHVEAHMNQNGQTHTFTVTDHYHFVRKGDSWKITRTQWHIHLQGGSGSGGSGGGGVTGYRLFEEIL

Molecule: C[C@]12CCC(=O)C=C1CC[C@@H]1[C@@H]2[C@@H](O)C[C@@]2(C)[C@H]1CC[C@]2(O)C(=O)CO [cortisol]
- EC50 [1]: 25 nM

B1: mini11: designed 3-helix bundle minibinder that binds seq129.1_CID only with cortisol (protein)
chain: MSSASTLVKTFSLCMEALSIEDPEKREEVYEKARKLAEENNDPAALFLVESIKKQHEQSSSLE
- ternary complex by native mass spectrometry (seq129.1_CID): revealed a molecular weight for the seq129.1_CID-cortisol-mini11 ternary complex

B2: mini11-LgBiT (designed binder)
chain: MSSASTLVKTFSLCMEALSIEDPEKREEVYEKARKLAEENNDPAALFLVESIKKQHEQSGGSGGMVFTLEDFVGDWEQTAAYNLDQVLEQGGVSSLLQNLAVSVTPIQRIVRSGENALKIDIHVIIPYEGLSADQMAQIEEVFKVVYPVDDHHFKVILPYGTLVIDGVTPNMLNYFGRPYEGIAVFDGKKITVTGTLWNGNKIIDERLITPDGSMLFRVTINS
- luminescent signal of reconstituted NanoBiT on titration with cortisol (the EC50 is a cortisol concentration) (seq129.1_CID-SmBiT): 25 nM
